Data set [1] can be described thus: Tissue distribution of Sali-ABA in 4T1-luc tumored mice. The conditions noted are these: mouse, in vivo, 24 h. As to the method:
(§1) Pharmacokinetics and biodistribution study. Sali-ABA concentrations in blood and tissues were analyzed, and the concentrations were analyzed as previously described (Zhao, et al; Mol. Pharm, 2014; 11(8):2703-12).
The aforementioned slow clearance and particle size of iTEP-MPBH-ABA-Sali could enable the conjugate to leverage the EPR effect and, therefore, more efficiently accumulate in tumors. […] Tumors and all following organ samples were collected at 24 hours post administration. The quantities of Sali-ABA were expressed as percentage of initial dose normalized by weight of organs, ID %/gram. The data were analyzed by one-way ANOVA. P-value is shown in the figure and * indicates a significant difference. At the same time, there was a reduction of Sali-ABA accumulation in the heart when iTEP-MPBH-ABA-Sali NP was compared with free Sali, although the difference was not statistically significant (0.57±0.18 ID %/gram vs 0.86±0.11 ID %/gram, FIG. 11C). The data were analyzed by one-way ANOVA. The reduction may benefit the toxicity profile of the NP as the heart is an organ sensitive to Sali (Bastianello, et al., J S Afr Vet Assoc, 1996; 67(1):38-41). […] The data were analyzed by one-way ANOVA. P-values are shown in the figure and * indicates a significant difference.

For data set [2], the system named is regular 4T1-luc cells. Briefly: Cytotoxicity, regular 4T1-luc cells. In kind it is cell-based, murine. How it is done: (§2) Cytotoxicity studies. The cytotoxicity was measured as previously described (Zhao, et al; Mol. Pharm, 2014; 11(8):2703-12). The incubation time was 72 hours. 4T1-lu mammosphere cells were generated as the previously described (Zhao, et al; Mol. Pharm, 2014; 11(8):2703-12).

In data set [3] the test system is mammosphere 4T1-luc cells. Briefly: Cytotoxicity, mammosphere 4T1-luc cells (CSCs). In kind it is cell-based, murine. How it is done:
as §2

Data set [4] in a line: Hydrodynamic diameter by dynamic light scattering (DLS). The conditions noted are these: 25 μM in PBS at 37° C. It is filed as physicochemical. How it is done:
Characterization of the size of iTEPB-pOVA and iTEPB-iTEPA-pOVA fusions. The particle size distribution of the iTEP fusions was determined by dynamic light scattering (DLS) using a Zetasizer Nano-ZS instrument (Malvern Instruments, Malvern, UK) as previously described.^(29) The fusions were prepared at 5 μM and 25 μM in PBS and equilibrated at 37° C. for the measurement. The reported results represented the average particle size by number.
Dynamic light scattering (DLS) measurement. The measurement was carried out as previously described. iTEP, iTEP-MPBH-ABA-Sali conjugate, or PTX NP were measured at 25 μM in PBS at 37° C. using a Malvern Zetasizer Nano system (Malvern, Chester County, PA, USA).
Characterization of hydrodynamic diameters of iTEP-vaccine fusions. Hydrodynamic diameters of iTEP-vaccine fusions were determined by dynamic light scattering (DLS) using a Zetasizer Nano-ZS instrument (Malvern Instruments, Malvern, UK) as previously described (Zhao et al., Mol Pharm, 2014; 11(8):2703-12). The samples were resuspended at concentrations of 5, 25, 50, and 100 μM in PBS and sat at room temperature overnight before measurement. Some samples were kept in 5% C02 at 37° C. for 16 h before DLS measurement. Hydrodynamic diameter results of the sample of 5 μM concentration were reported because they were not affected by the used sample concentrations. Hydrodynamic diameters were presented using the size-by-number distribution approach. Z-average values and sizes-by-intensity data, however, were also reported.

Data set [5] deals with 4T1-luc orthotopic tumors. Briefly: Tumor growth, metastasis and survival study. It is filed as in vivo, Balb/c mice. How it is done:
Tumor growth study. Balb/c mice were inoculated subcutaneously with 10^6 4T1-luc cells in 50 μL PBS at the #9 mammary glands. At the seventh day after inoculation when the volumes of all tumors reached or exceeded 100 mm^3, the mice were randomly assigned into groups as described in FIGS. 12 and 13. The dosing and dosing schedules are as following: • 1. PBS control (three day interval); Sali-ABA (20 mg/Kg BW, three-day interval), • 2. iTEP-MPBH-ABA-Sali NP (20 mg/Kg BW, three-day interval), • 3. PTX NP (10 mg/Kg BW, three-day interval), • 4. PTX NP and iTEP-MPBH-ABA-Sali combination, iTEP-MPBH-ABA-Sali NP on the first day (20 mg/Kg BW), PTX NP on the second day (10 mg/Kg BW), then two-day interval.
Seven total doses were administered intravenously. The length and width dimensions of tumors were measured with a caliper every other day. Tumor volumes were estimated using the formula: Tumor Volume=(length×width^2/2) (Zhang et al., Biomaterials, 2012; 33(2):679-91). Also, mouse body weight was recorded the same day when the tumor size was measured. The treatments of PTX NP and the combinational therapy were done after the results of the first three treatment groups were obtained.
Moreover, in order to monitor metastasis, bioluminescence signals released from 4T1-luc cells were monitored as previously described (Tao et al., BMC Cancer, 2008; 8(1):228). Specifically, experimental mice were injected intraperitoneally with 100 μl of D-luciferin (15 mg/ml) at predetermined time points (twice each week, 3-4 days interval). At 15 minutes after luciferin injection, the mice were imaged under anesthesia in a Xenogen IVIS 200 biophotonic imager (PerkinElmer, Inc., MA, USA). The bioluminescence intensity was denoted using photon emission from the subject or radiance in the unit of photons/sec/cm^2/sr (steradian). […] The overall survival time was counted as days between tumor inoculation and mouse sacrifice. Metastasis-free survival and overall survival were analyzed by the Kaplan-Meier method, and the median survival of each groups were compared using the Log-rank test with GraphPad V5.0.

A short description of data set [6]: In vitro Sali-ABA release assay. In kind it is physicochemical. The conditions noted are these: neutral pH (PBS), up to 100-hour monitoring. As to the method: In vitro Sali-ABA release assay. The release of Sali-ABA from iTEP-MPBH-ABA-Sali NP was measured after the NP was incubated in PBS (pH=7.4) or 0.1M sodium acetate/acetic acid buffer (pH=5) at 37° C. Multiple repeats of each mixture were kept in separate Eppendorf tubes and shaken at 100 rpms at 37° C. At predetermined time points, free Sali-ABA in one tube of sample was determined by HPLC based on a standard curve of Sali-ABA. The standard curve was established at 280 nm. The HPLC setup was the same as the described herein.
The relationship of the percentage of Sali-ABA release (F) with time (t) was fitted using the following equation and GraphPad V5.0. F%,released=100[…]

Data set [7] is described as follows: Pharmacokinetics (plasma Sali-ABA) after intravenous administration. Set-up: species or system mice. The conditions noted are these: mouse, in vivo. How it is done:
as §1
Results. The pharmacokinetics of Sali-ABA and iTEP-MPBH-ABA-Sali were compared after they were administered intravenously to mice at a dose of 20 mg/Kg Sali-ABA equivalent. Plasma concentrations of Sali-ABA after the administration of either formulation were monitored for up to 24 hours (FIG. 11A). The temporal changes of the concentrations were fitted into a two-compartment pharmacokinetics model.

“Also recorded” adds a separate entry of the source. Read-outs that look alike come from different tables or passages of the source.

`CC[C@@H](C(=O)[C@@H](C)[C@@H](O)[C@H](C)[C@@H]1O[C@@H]([C@@H](CC)C(=O)O)CC[C@@H]1C)[C@H]1O[C@]2(C=C[C@@H](O)[C@]3(CC[C@@](C)([C@H]4CC[C@](O)(CC)[C@H](C)O4)O3)O2)[C@H](C)C[C@@H]1C` [Sali, Salinomycin, reference compound]: the “Sali-ABA accumulation in the heart” value in data set [1] is listed as 0.86±0.11 ID %/gram. In data set [2] (Mus musculus, 4T1-Luc, 72 h), this molecule came in with an IC50 of 4.4 µM.

B1: iTEP-MPBH-ABA-Sali: conjugate of hydrophilic iTEP (SEQ ID NO: 58) with Sali-ABA-MPBH, self-assembled into a NP (conjugate)
chain: GGAGVPGGAGVPGGAGVPGGAGVPGGAGVPGGAGVPGGAGVPGGAGVPGGAGVPGGAGVPGGAGVPGGAGVPGGAGVPGGAGVPGGAGVPGGAGVPGGAGVPGGAGVPGGAGVPGGAGVPGGAGVPGGAGVPGGAGVPGGAGVPGGAGVPGGAGVPGGAGVPGGAGVPGGAGVPGGAGVPGGAGVPGGAGVPGGAGVPGGAGVPGGAGVPGGAGVPGGAGVPGGAGVPGGAGVPGGAGVPGGAGVPGGAGVPGGAGVPGGAGVPGGAGVPGGAGVPGGAGVPGGAGVPGGAGVPGGAGVPGGAGVPGGAGVPGGAGVPGGAGVPGGAGVPGGAGVPGGAGVPGGAGVPGGAGVPGGAGVPGGAGVPGGAGVPGGAGVPGGAGVPGGAGVPGGAGVPGGAGVPGGAGVPGGAGVPGGAGVPGGGVLPGVGGVLPGVGGVLPGVGGVLPGVGGVLPGVGGVLPGVGGVLPGVGGVLPGVGGVLPGVGGVLPGVGGVLPGVGGVLPGVGGVLPGVGGVLPGVGGVLPGVGGVLPGVGGVLPGVGGVLPGVGGVLPGVGGVLPGVGGVLPGVGGVLPGVGGVLPGVGGVLPGVGGVLPGVGGVLPGVGGVLPGVGGVLPGVGGVLPGVGGVLPGVGGVLPGVGGVLPGVGGVLPGVGGVLPGVGGVLPGVGGVLPGVGGVLPGVGGVLPGVGGVLPGVGGVLPGVGGVLPGVGGVLPGVGGVLPGVGGVLPGVGGVLPGVGGVLPGVGGVLPGVGGVLPGVGGVLPGVGGVLPGVGGVLPGVGGVLPGVGGVLPGVGGVLPGVGGVLPGVGGVLPGVGG
modifications: conjugated to Sali via ABA-MPBH linker
Take B1: the “times more toxic to mammosphere 4T1-luc cells (CSCs) than to regular 4T1-luc cells” value in data set [3] is “about eight”. The IC50 turned out to be 5.8 µM in data set [3] (mammosphere 4T1-luc cells, 72 hours) and 42.2 µM in data set [2] (regular 4T1-luc cells, 72 hours, read-out: IC50). The “hydrodynamic diameter (DLS)” value in data set [4] is on record as 51.2±18.2 nm. The median overall survival in data set [5] (days after tumor inoculation) stood at 39 days. Further, in data set [5] (mouse, in vivo, listed as iTEP-MPBH-ABA-Sali NP), the “development of metastasis in treated mice” value was “No mice in the NP-treated group developed metastasis; also recorded: zero metastasis”. In addition, the “inhibition of primary tumor growth” value in data set [5] (seven intravenous doses) was “slowed primary tumor growth”. The “release at the neutral pH” value in data set [6] is on record as “no detectable release”. The “elimination half-life, times longer than free Sali-ABA administration” value in data set [7] is recorded as 35 times. The “cytotoxicity, times lower than Sali-ABA-MPBH alone” value in data set [2] (regular 4T1-luc cells) amounted to 2.6 times.

By IC50 is commonly meant the concentration that gives 50% inhibition.
